Laboratory results published in US20230036060A1 (University of California, published 2023).

T1: NLS-pMag-CreC
T1 chain: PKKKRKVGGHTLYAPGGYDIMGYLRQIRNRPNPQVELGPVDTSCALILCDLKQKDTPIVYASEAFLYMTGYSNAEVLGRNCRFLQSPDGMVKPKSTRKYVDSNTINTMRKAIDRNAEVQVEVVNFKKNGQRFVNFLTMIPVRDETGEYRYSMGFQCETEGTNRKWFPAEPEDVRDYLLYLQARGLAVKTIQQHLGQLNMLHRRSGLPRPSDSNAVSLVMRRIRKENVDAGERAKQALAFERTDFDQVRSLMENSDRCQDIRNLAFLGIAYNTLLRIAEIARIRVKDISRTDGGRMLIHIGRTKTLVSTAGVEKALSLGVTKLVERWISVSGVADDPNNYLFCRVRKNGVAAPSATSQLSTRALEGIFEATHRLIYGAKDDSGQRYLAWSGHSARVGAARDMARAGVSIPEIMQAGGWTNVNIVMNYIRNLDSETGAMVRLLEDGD


Key:
NLS-pMag-CreC = molecular target: T1, NLS-pMag-CreC; assay: cell-based or functional assay
[1] = molecular target: T2, CD38 on CD38+ Toledo Target cells (UniProt P28907 1-300, limits assumed); assay: flow cytometry, Jurkat T cells carrying the receptor with Toledo Target cells
T2 construct: whole, on cells

Binder	fold increase in recombined TamPA-Cre+ CAR Reporter Jurkat T cells, Light+4-OHT against Dark+4-OHT (NLS-pMag-CreC) [fold]	binding result [1]
ERT2-CreN-nMag (other) MAGDMRAANLWPSPLMIKRSKKNSLALSLTADQMVSALLDAEPPILYSEYDPTRPFSEASMMGLLTNLADRELVHMINWAKRVPGFVDLTLHDQVHLLECAWLEILMIGLVWRSMEHPVKLLFAPNLLLDRNQGKCVEGMVEIFDMLLATSSRFRMMNLQGEEFVCLKSIILLNSGVYTFLSSTLKSLEEKDHIHRVLDKITDTLIHLMAKAGLTLQQQHQRLAQLLLILSHIRHMSNKGMEHLYSMKCKNVVPLYDLLLEAADAHRLHAPTSRGGASVEETDQSHLATAGSTSSHSLQKYYITGEAEGFPATAVDNLLTVHQNLPALPVDATSDEVRKNLMDMFRDRQAFSEHTWKMLLSVCRSWAAWCKLNGTHTLYAPGGYDIMGYLDQIGNRPNPQVELGPVDTSCALILCDLKQKDTPIVYASEAFLYMTGYSNAEVLGRNCRFLQSPDGMVKPKSTRKYVDSNTINTMRKAIDRNAEVQVEVVNFKKNGQRFVNFLTMIPVRDETGEYRYSMGFQCETE	27.1	
myc-α-CD38-Receptor (receptor, Non-signalling anchoring receptor with myc tag, expressed on Jurkat T cells; also called c-myc-tagged α-CD38 Receptor) SEQKLISEEDLDIQLTQSSSSFSVSLGDRVTITCKASEDIYNRLAWYQQKPGNAPRLLISGATSLETGVPSRFSGSGSGKDYTLSITSLQTEDVATYYCQQYWSTPTFGGGTKLEIKRADAAPTVSIFPPSGGGGSGGGGSGGGGSGGGGSQVQLKQSGPSLVQPSQRLSITCTVSGFSLISYGVHWVRQSPGKGLEWLGVIWRGGSTDYNAAFMSRLSITKDNSKSQVFFKMNSLQADDTAIYFCAKTLITTGYAMDYWGQGTSVTVSSAAAIEVMYPPPYLDNEKSNGTIIHVKGKHLCPSPLFPGPSKPFWVLVVVGGVLACYSLLVTVAFIIFWVRSKRS		binds
